# B1: "Peptide-N(4)-(N-acetyl-beta-glucosaminyl)asparagine amidase" (Mus musculus), Q9JI78 (parent)
# chain: MASATLGSSSSSASPAVAELCQNTPETFLEASKLLLTYADNILRNPSDEKYRSIRIGNTAFSTRLLPVRGAVECLFEMGFEEGETHLIFPKKASVEQLQKIRDLIAIERSSRLDGSSKKVQFSQHPAAAKLPLEQSEDPAGLIRHSGNQTGQLPSLPSAPMVVGDSTILKVLQSNIQHVQLYENPVLQEKALTCIPVSELKRKAQEKLFRARKLDKGTNVSDEDFLLLELLHWFKEEFFRWVNNIVCSKCGGETRSRDEALLPNDDELKWGAKNVENHYCDACQLSNRFPRYNNPEKLLETRCGRCGEWANCFTLCCRALGFEARYVWDYTDHVWTEVYSPSQQRWLHCDACEDVCDKPLLYEIGWGKKLSYIIAFSKDEVVDVTWRYSCKHDEVMSRRTKVKEELLRETINGLNKQRQLSLSESRRKELLQRIIVELVEFISPKTPRPGELGGRVSGSLAWRVARGETGLERKEILFIPSENEKISKQFHLRYDIVRDRYIRVSDNNINISGWENGVWKMESIFRKVEKDWNMVYLARKEGSSFAYISWKFECGSAGLKVDTVSIRTSSQSFESGSVRWKLRSETAQVNLLGDKNLRSYNDFSGATEVTLEAELSRGDGDVAWQHTQLFRQSLNDSGENGLEIIITFNDL
# Variants of: B1
# Details: with tera_mouse Vcp
row,Variant,effect of a mutation on the interaction
1,N58D,disrupting interaction strength

# Variants of: B1
# Details: with tera_mouse Vcp
# Remark: another data set of the same source
row,Variant,effect of a mutation on the interaction
1,R55E,disrupting interaction strength

# From IntAct's records for PubMed 17496150
